The values below come from article PMC6628147.

Experiment in all cases: EMSA
Conditions in all cases: EMSA: 1 nM 6-FAM DNA, 0-1.28 uM protein, 1 h at 37 C, binding buffer not stated; 6% PAGE in 40 mM Tris pH 7.6, 20 mM acetic acid, 1 mM EDTA at 4 C (effectors …)
In general terms: A gel shift assay detects complexes by their altered migration in electrophoresis.

In data set [1] the test system is BenM-DBDCatM(F293Y,H160R)-His (Acinetobacter baylyi ADP1).
Data set [2] deals with BenM-DBDCatM-His (Acinetobacter baylyi ADP1).
Data set [3] relates to CatM-His (Acinetobacter baylyi ADP1).
The subject of data set [4] is CatM(I18F,K38N)-His (Acinetobacter baylyi ADP1).

“And” between values parts separate entries of the source, which are not always exact repeats. Equal values may be shown once.

Broadly, the Kd is the concentration at which binding is half-saturated. The low end stands for higher affinity, the high end for lower affinity. In the case of PcatB operator-promoter, the Kd in data set [1] is 3 nM; in data set [2] it was 1 nM and 3 nM (2×) and 4 nM; in data set [3] it was 11 nM and 19 nM (2×) and 10 nM.

Consider PbenA operator-promoter, for which the Kd in data set [1] is 1 nM and 4 nM (2×) and 2 nM; in data set [4], 42 nM and 32 nM (2×) and 34 nM; in data set [3], 70 nM and 71 nM (2×) and 67 nM.
